Assay results as given in paper PMC5826319, “Control of the Nucleotide Cycle in Photoreceptor Cell Extracts by Retinal Degeneration Protein 3” (Frontiers in Molecular Neuroscience, 2018).

Key:
[1] = target: T1, Guanylate kinase (GUK) from porcine brain (porcine, UniProt P31006 1-198); experiment: cell-based or functional assay
T1 sequence (looked up): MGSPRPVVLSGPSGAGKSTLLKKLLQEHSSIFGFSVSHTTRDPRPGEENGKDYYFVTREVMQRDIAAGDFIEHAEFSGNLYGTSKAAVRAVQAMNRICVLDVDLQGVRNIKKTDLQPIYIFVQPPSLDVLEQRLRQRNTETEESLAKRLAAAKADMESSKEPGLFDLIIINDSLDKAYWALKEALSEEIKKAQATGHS

[2] = target: T2, Guanylate kinase (GUK) in a soluble extract from bovine rod outer segments (bovine (endogenous in rod outer …, UniProt P46195 1-198)); experiment: cell-based or functional assay
T2 sequence (looked up): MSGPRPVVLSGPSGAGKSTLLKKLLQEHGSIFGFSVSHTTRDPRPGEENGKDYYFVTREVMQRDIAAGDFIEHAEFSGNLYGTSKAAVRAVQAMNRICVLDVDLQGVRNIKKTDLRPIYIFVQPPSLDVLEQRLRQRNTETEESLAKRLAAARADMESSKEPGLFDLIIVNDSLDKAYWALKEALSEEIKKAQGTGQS

[3] = target: the molecule itself; experiment: cross-linking; purified RD3 (0.1 ug) with 0.5 mM BS3 for 2 min at room temperature, stopped with Tris-HCl pH 7.5; SDS-PAGE and anti-RD3 immunoblot; monomer to dimer
[4] = target: T3, Guanylate kinase (GUK), mouse, isoform 1 (mouse, UniProt Q64520-2 1-219); experiment: back-scattering interferometry (BSI); free solution, label-free, nothing immobilised; RD3 (or TEV protease) 0 to 300 nM titrated into lysate supernatant of stable GUK HEK-293T cells (0.1 ug/ul) in 20 mM phosphate buffer pH 7.0, 150 mM NaCl, 0.005% Tween 20; overnight at 4°C; titration of lysate without GUK subtracted; apparent KD, Hill fit; conditions: one partner purified
T3 construct: it gives an expected theoretical mass of 22 kDa, which fits about 198 aa better than the printed 219 aa; also called recombinant GUK; GUK1
T3 sequence (looked up): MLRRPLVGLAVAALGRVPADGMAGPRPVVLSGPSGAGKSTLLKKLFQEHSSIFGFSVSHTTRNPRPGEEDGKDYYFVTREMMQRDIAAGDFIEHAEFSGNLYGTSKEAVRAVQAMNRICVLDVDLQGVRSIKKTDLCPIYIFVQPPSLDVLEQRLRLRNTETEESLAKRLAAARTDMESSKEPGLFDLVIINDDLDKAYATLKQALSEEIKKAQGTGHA

B1: Retinal degeneration protein 3 (RD3), human, His6-tagged (natural protein, UniProt Q7Z3Z2 1-195, looked up)
chain: MSLISWLRWNEAPSRLSTRSPAEMVLETLMMELTGQMREAERQQRERSNAVRKVCTGVDYSWLASTPRSTYDLSPIERLQLEDVCVKIHPSYCGPAILRFRQLLAEQEPEVQEVSQLFRSVLQEVLERMKQEEEAHKLTRQWSLRPRGSLATFKTRARISPFASDIRTISEDVERDTPPPLRSWSMPEFRAPKAD
notes: The forward primer puts a few extra vector or primer residues before the first Met; also called RD3 - His6; His-tagged RD3
guanylate kinase activity (5'-GMP to GDP, coupled spectrophotometric assay at 340 nm), RD3 0 to 3.5 uM [1]: ~10 fold
guanylate kinase activity (5'-GMP to GDP, coupled spectrophotometric assay at 340 nm), RD3 0 to 3.5 uM [2]: 2 fold
stoichiometry N [3]: 2
Kd [4]: ~100 nM
